# Source: patent US6004757
# Assays:
# [1] = target: chicken pp60^v-src (chicken)
# [2] = target: human EGF receptor (human) (UniProt P00533)
# [3] = target: GST-fusion construct of src
# [4] = target: chicken pp60^v-src (chicken); assay: inhibition of transphosphorylation of acid denatured enolase (1 µM) by immobilised pp60^v-src, [γ-32P]-ATP, SDS-PAGE
substance,measurement,setting,value
peptide Ala-Glu-Glu-Glu-Ile-Tyr-Gly-Glu-Phe-Glu-Ala-Lys-Lys-Lys-Lys,Km (µM) of phosphorylation of the peptide by the kinase,[1],32.9 µM
same,Km (µM) of phosphorylation of the peptide by the kinase,[2],34 µM
same,Km of phosphorylation of the peptide by the kinase,[3],33 µM
same,Ki,[4],8 µM
